A short description of this data set: soluble on expression in E. coli; label from the status in PepcDB or PDB records.
As to “MGSDKIHHHHHHMIVMDAETLKELIRDDFEVINANETVSKLFPMLEKLDRDKANAILVEEDGKIVGVVREKDLIRGSVLKNPHETKVKSLLVRTGKIDLNELDPYKVARRFVEDSTPFVIVQIDDKRVGVIYINDFLSALKDEFKDVKVREVMNPEVITVRRFDSAAKALSVMRTHGIDRVVVVDENNKVIGILTGKDVVDRVISPRKRARMGDSSGEKEKTLSIMVESIMSSPVVSVSRNDSVAEVIDLMVENRISSVVVTRDGLPDGIVIKKDILEYYLKKESRKEFNVQISTADITLDEFDREAILEDVEKLMRKFSDFLGESFLFIYIKRHKEHFRNLPLIHVRLKLASEKGNFMVSGESWGVEYAVHVALKKLEREILKEKELLEDKRMIKRFYEEVLEY”, the “soluble on expression in E. coli” value is given as “not soluble”.

In the case of “MGSDKIHHHHHHMASTTPEGLEIRPRHLDFDLPDPMPRHWHSGDAFKTHMFNAMSVLFPDGERFFIDSVRHYRERVEDPALKQQIRGFIGQEGHHSREHLVYSDRLRALGYDIDRLEGGAKRRIRFAQQKLHPSRQLAATAALEHLTAIMADGLLSNPRWLEGADPTMARLWRWHALEETEHKAVAYDVFMLVNGKARLRRRAMVQGTFFFALDTTKGLVHMLKRDGLLWNFKVWRDGIKWLWGKDGVFRSLVGVYLDFYKKDFHPWQHNNLHLIEQYRDQFEPEPKAA”, the “soluble on expression in E. coli” value is listed as “not soluble”.

In the case of “GAMEAEKEFITMLKENQVDSTWSFSRIISELGTRDPRYWMVDDDPLWKKEMFEKYLSNR”, the “soluble on expression in E. coli” value is on record as “soluble”.

As to “MNNLKLDIVEQDDKAIVRVQGDIDAYNSSELKEQLRNFISTTSKKKIVLDLSSVSYMDSAGLGTLVVILKDAKINGKEFILSSLKESISRILKLTHLDKIFKITDTVEEA”, the “soluble on expression in E. coli” value was “soluble”.

Consider “MHHHHHHSSGVDLGTENLYFQSNAMEPFKHPIAILGAGSWGTALALVLARKGQKVRLWSYESDHVDEMQAEGVNNRYLPNYPFPETLKAYCDLKASLEGVTDILIVVPSFAFHEVITRMKPLIDAKTRIAWGTKGLAKGSRLLHEVVATELGQVPMAVISGPSLATEVAANLPTAVSLASNNSQFSKDLIERLHGQRFRVYKNDDMIGVELCGSVKNILAIATGISDGLKLGSNARAALITRGLTEMGRLVSVFGGKQETLTGLAGLGDLVLTCTDNQSRNRRFGLALGEGVDKKEAQQAIGQAIEGLYNTDQVHALAQKHAIEMPLTFQVHRILHEDLDPQQAVQELLERSPKAE”, for which the “soluble on expression in E. coli” value is reported as “soluble”.

For “MSEEKIYDVIIIGAGPAGMTAAVYTSRANLSTLMLERGIPGGQMANTEDVENYPGYESILGPDLSNKMFEHAKKFGAEYAYGDVKEVIDGKEYKTIIAGKKEYKARAIIVASGAEYKKIGVPGETELGGRGVSYCAVCDGAFFKGKELVVIGGGDSAVEEGVFLTRFASKVTIVHRRDTLRAQKILQDRAFQNEKVDFIWNHTIKEINEANGKVGSVTLVDVNSGEEKEVKTDGVFVYIGMLPLSKPFVELGITNENGYLETNERMETKVPGIFAAGDVREKMLRQIVTATGDGSIAAQSAQHYVEELLEELKTVSEK”, the “soluble on expression in E. coli” value is reported as “not soluble”.

With “MKFPGQRKSKHYFPVHARDPLVIQAQENKKMSRTHIIGIDQTLVDIEAKVDSDLIERYGLSKGHSLVIDDHAAEALYNELKEQRLITNEYAGGTIGNTLHNYSVLADDRSTLLGVMSQDIKIGSYGYRYLCNTSSRMDLNYLQGVDGAIGRCFALITEDGERTFAISEGQMNQLRPDSIPEKIFASASALVITAYLVRCKEGDPMPEATMRAIEYAKKYDVPVVLTLGTKFVIQDDPKFWQEFLRDHVTVVAMNEDEALALTGESDPLAASDKALDWVDLVLCTAGPVGLFMAGYTEDSAKRETSLPLLPGSVPEFNRYEFSRPARKESCINPIRVYSHISPYMGGPEKIKNTNGAGDAALSALLHDMAANKYHKENVPNSSKHQHEFLTYSSFSQVCKYSNRASYEVLAQHSPRLSRGLPEREDSLEEAYWER”, the “soluble on expression in E. coli” value is given as “not soluble”.

In the case of “MSTIHTPLTYNEINGKPFGLDYELAKQFADYLGVKLKVTVRQNISQLFDDLDNGNADLLAAGLVYNSERVKNYQPGPTYYSVSQQLVYKVGQYRPRTLGNLTAEQLTVAPGHVVVNDLQTLKETKFPELSWKVDDKKGSAELMEDVIEGKLDYTIADSVAISLFQRVHPELAVALDITDEQPVTWFSPLDGDNTLSAALLDFFNEMNEDGTLARIEEKYLGHGDDFDYVDTRTFLRAVDAVLPQLKPLFEKYAEEIDWRLLAAIAYQESHWDAQATSPTGVRGMMMLTKNTAQSLGITDRTDAEQSISGGVRYLQDMMSKVPESVPENERIWFALAAYNMGYAHMLDARALTAKTKGNPDSWADVKQRLPLLSQKPYYSKLTYGYARGHEAYAYVENIRKYQISLVGYLQEKEKQATEAAMQLAQDYPAVSPTELGKEKFPFLSFLSQSSSNYLTHSPSLLFSRKGSEEKQNLEHHHHHH”, the “soluble on expression in E. coli” value is “soluble”.

For “MSLANRMPTPGSLAAFLKDRRTRLDPASFGFSGRRRTPGLRREEVAQRANISPTWYTWLEQGRGGAPSADVLNRIAKGLLLTEAEREHLFMLGLGRPPEVRYRGDEGVSPRLQRLIDTLEASPALVKTATWDVVAWNRAAEIVLTDYGTIPAGRRNILRFMFLTPHIRAKQHDWENLARFVVGAFRADAARAGAVSEVTQLVDELCSGSAEFATLWQENDVLAHGDGTKRLKHPELGDIELEYSSFAVDGRPDLNLTVYNPVDSEVADRIRSLAKRLREGHHHHHH”, the “soluble on expression in E. coli” value was “soluble”.

“MASFCNSWKRKHNEAIKLSEEIDGMILERSSLAETSSYARGHASYMRRKITILANGVQTLKNLLAESQGKSISAKEMSRCKDMVEDLRSKAYQMASALDMLKFSNIGSLLGQDDIMSRVIDMDNQEIVGFQRTTMKGKLKGVMHLKREALAMNMELGLQTRLIDRLDHHVDVSASDVEELQRSIDTGVCMTLLLSVVVVVFGLSEFVKFGRRRILG”: the “soluble on expression in E. coli” value is reported as “soluble”.

Take “MINKTKRLMVPRTVKIPRKTYFWGPTPLPGRHKADHSVTLLTIIRDYLRLSDKEREATRILANGLVKVDGKVVKERKFGVGFMDVIEISGESYRVVYNNQGALVLVSESKDRANMKPLQVKNKVIAPGNKIQLGFHDGRVMVTEDRSISVGDVVIASLPDMKITEIIKMQPGNKAFITGGSHVGETGTISKIEIKESSSANLVHFDEGFTTVKDHVFVIGSPRFTFTMPSGEVYPLEHHHHHH”: the “soluble on expression in E. coli” value was “not soluble”.

For “MGSDKIHHHHHHMKVLLTRPQGRNQAMEEQLSLRDVAYLVTPLLSVVETTEQLNPTHLNNTDNLLFISSNAVDFAAQKLQQQFPTHCRYFAVGQATADSLAQYNINAFTSPEHSQDSEGLLSLAQLQDVDKQSFIIVRGLGGRETLAEQLQLRGANVNYWQVYQRAIPNLDGKAITQQWKSFGIDTIVVTSGEILSNLVELVPKELFAWLRACHIIVPSNRVELQAKAMGLSHISNANGANTQAILASLAL”, the “soluble on expression in E. coli” value is “not soluble”.

Turning to “MVLWVFGYGSLIWNPGFDFDEKLIGYIKDYKRVFDLACIDHRGTPEHPARTCTLEQSTGAICWGAAYCVRGGPEKEKLAMEYLERRECEYDSKTLVEFYTENDTSTPIVTGVIVFTSTPDKVSNKYYLGPAPLEEMARQIATASGPCGNNREYLFKLEKAMFDIEHEEEYVIELANEVRKQLDLPEEVKALLKPIVSHVSVKSQAHVSTRQRVFAS”, the “soluble on expression in E. coli” value was “soluble”.

For “MGSDKIHHHHHHMTSAANLVRITQPAISRLIRDLEEEIGISLFERTGNRLRPTREAGILFKEVSRHFNGIQHIDKVAAELKKSHMGSLRVACYTAPALSFMSGVIQTFIADRPDVSVYLDTVPSQTVLELVSLQHYDLGISILAGDYPGLTTEPVPSFRAVCLLPPGHRLEDKETVHATDLEGESLICLSPVSLLRMQTDAALDSCGVHCNRRIESSLALNLCDLVSRGMGVGIVDPFTADYYSANPVIQRSFDPVVPYHFAIVLPTDSPPPRLVSEFRAALLDALKALPYETI”, the “soluble on expression in E. coli” value is recorded as “not soluble”.

In the case of “IARVVVHPDYRADGLGILAVRTAVEWIEERRVPEMRMRKHLVETIAQMARFNPFFEKAGFYYLWDTASGKPVLYKPLSEEAE”, the “soluble on expression in E. coli” value is “not soluble”.

Consider “MSLKIMGFYSQVILPRLLDWSLSDPTLATYRQELLTDVTGEVLEIGFGTGLNLAYYPSHIHKITTVDVNPGMNTIAQKRIDDSGIKVQQLLLSGENLPMADNTFDSVVSTWTLCSIANVEQALQEVYRVLKPGGKFFFLEHGLSNKPNVQVWQNRLTPIQKVLADGCHLNRNIQQLVEQSFDHVELKRFTPENFPDLMAHFYKGCATKKSIEGHHHHHH”, for which the “soluble on expression in E. coli” value is recorded as “not soluble”.

The values are drawn from the DeepSol protein solubility set.
